± gives the standard deviation of the averaged measurements.
Test system: ATP
Assay: switch fluorescence ratio, 500 uM ATP over buffer (Cy3 cluster intensity, sum of 5 cycles each) (fold (ratio)); higher = stronger signal-on switching upon ATP binding; sequences stand for … in TCGTCGGCAGCGTCAGATGTGTATAAGAGACAGTTTTTTTTTTTTTTTTTTTTTTTTT…TC
Conditions: aptamer strand: ATP DNA aptamer (quencher-CACCTGGGGGAGTATTGCGGAGGAAGG + anchor), 100 nM annealed; ATP concentration: 500 uM
How it was run: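 After annealing to 100 nM quencher-labelled ATP aptamer, Cy3-labelled switching-strand clusters on a modified Illumina MiSeq flow-cell were imaged in selection buffer. A second image followed after 15 min with 500 uM ATP at 22 °C, and five such buffer/ATP cycles were done, each separated by NaOH stripping and re-annealing. The fluorescence ratio, averaged per switch-domain sequence, is summed target-cycle over summed buffer-cycle Cy3 intensity per cluster, with clusters outside 100-1000 RFU excluded.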
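Note: ATP exposure 15 min at 22 °C before imaging.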

Sequence	switch fluorescence ratio
TCGTTTTGCT	0.981 ± 0.017
TCTAAAGGGA	1.03 ± 0.024
TCTAAAGGGT	0.9988 ± 0.0021
TCTAAATAGG	0.9908 ± 0.0032
TCTAAGCCAT	1.05 ± 0.017
TCTAAGGATT	1.02 ± 0.022
TCTAAGGGGG	1.015 ± 0.0074
TCTAAGTCCA	0.989 ± 0.068
TCTACGCACT	2.62 ± 0.15
TCTACTGGGC	1.05 ± 0.1
TCTAGAACGC	1.01 ± 0.013
TCTAGACTCA	1.18 ± 0.29
TCTAGCCGGT	0.9878 ± 0.0085
TCTAGGACGT	1.02 ± 0.019
TCTAGTGGCA	0.98 ± 0.038
TCTAGTGTGC	0.9772 ± 0.0086
TCTATCAGGG	0.995 ± 0.011
TCTATCATGA	0.988 ± 0.013
TCTATTAGTA	0.932 ± 0.062
TCTATTATAC	1.23 ± 0.13
TCTATTGAGC	1.032 ± 0.0049
TCTATTGGA	0.9949 ± 0.0037
TCTCAAATTT	0.975 ± 0.029
TCTCAATGCT	1.21 ± 0.2
TCTCACGGGG	1.29 ± 0.33

Sequence	switch fluorescence ratio
TCTCGGCATT	1.46 ± 0.23
TCTCGGCTAT	2.98 ± 0.2
TCTCGTGAGA	0.997 ± 0.053
TCTCTATAGG	0.9834 ± 0.0036
TCTCTATGTG	0.966 ± 0.036
TCTCTATTT	0.965 ± 0.048
TCTCTGTGTT	1.027 ± 0.0019
TCTCTGTTGA	1.01 ± 0.057
TCTGAAAGTC	0.9963 ± 0.0057
TCTGAAGGAG	1.01 ± 0.013
TCTGATGGAA	1.06 ± 0.037
TCTGATTGGT	0.9945 ± 0.0034
TCTGCATGTT	1.02 ± 0.012
TCTGGAAGGC	1.29 ± 0.25
TCTGGAGAGG	1.01 ± 0.034
TCTGGATTCA	0.986 ± 0.027
TCTGGATTGG	0.961 ± 0.029
TCTGGCCGGC	0.986 ± 0.028
TCTGGCGTAA	1.79 ± 1.1
TCTGGGAAAG	1 ± 0.013
TCTGGGGCCG	1.02 ± 0.065
TCTGGGTCGC	1.02 ± 0.017
TCTGGGTTGG	1.013 ± 0.0074
TCTGGTGCAT	1.17 ± 0.14
TCTGGTTAAA	0.982 ± 0.013

Sequence	switch fluorescence ratio
TCTGGTTAGC	1.03 ± 0.026
TCTGGTTTGG	1.03 ± 0.049
TCTGTAGCTG	1.3 ± 0.015
TCTGTAGTTG	0.997 ± 0.04
TCTGTCCG	1.05 ± 0.14
TCTGTCTATA	1.03 ± 0.026
TCTGTCTGAG	0.988 ± 0.027
TCTGTGCCTT	1.06 ± 0.069
TCTGTGTACG	1.04 ± 0.047
TCTGTGTTAT	1 ± 0.026
TCTGTGTTGA	1 ± 0.011
TCTGTTAGGA	1 ± 0.035
TCTGTTCTTG	0.987 ± 0.012
TCTGTTGACG	1.0236 ± 0.00081
TCTGTTGCAG	0.999 ± 0.024
TCTGTTTGTA	0.9816 ± 0.0075
TCTTAAAAT	1.006 ± 0.0097
TCTTAAGGGA	0.979 ± 0.025
TCTTAATTTT	0.973 ± 0.024
TCTTACAATA	1.14 ± 0.091
TCTTACAATC	1.1 ± 0.095
TCTTAGAGGG	0.991 ± 0.017
TCTTAGGAGG	0.9691 ± 0.0023
TCTTAGGCGC	1.03 ± 0.029
TCTTAGGCGT	1.02 ± 0.022

Sequence	switch fluorescence ratio
TCTTAGGGGA	0.998 ± 0.017
TCTTAGTTGT	0.988 ± 0.024
TCTTATCTTG	0.978 ± 0.037
TCTTCAAGTT	0.988 ± 0.031
TCTTCCTGGA	1.08 ± 0.039
TCTTCGTTTT	1.23 ± 0.32
TCTTGAACTT	1 ± 0.018
TCTTGAATGG	0.986 ± 0.0051
TCTTGATCTA	1.015 ± 0.0098
TCTTGATCTG	1.016 ± 0.0021
TCTTGCATGT	1.02 ± 0.028
TCTTGCCGCT	1.01 ± 0.061
TCTTGGATCT	0.987 ± 0.055
TCTTGGGGAC	1.14 ± 0.2
TCTTGGGGGT	1.03 ± 0.049
TCTTGTAACT	1.01 ± 0.017
TCTTGTACGT	1.01 ± 0.03
TCTTTAAAGA	0.9785 ± 0.0083
TCTTTAGGGA	1.02 ± 0.054
TCTTTCATAT	0.9392 ± 0.0062
TCTTTGGGAT	0.962 ± 0.033
TCTTTGTTAC	1.05 ± 0.022
TCTTTTGAGG	1.02 ± 0.056
TCTTTTGGGC	1.02 ± 0.076
TCTTTTTGGA	1.017 ± 0.0079

Sequence	switch fluorescence ratio
TCTTTTTGGT	0.992 ± 0.018
TGAAAAAACA	1.02 ± 0.019
TGAAAAAATT	1.02 ± 0.071
TGAAAAAGTT	1.32 ± 0.47
TGAAAAATTG	0.985 ± 0.053
TGAAAAGAAG	1.029 ± 0.0061
TGAAAAGGTC	0.982 ± 0.063
TGAAAAGTCG	0.99334 ± 0.00072
TGAAAATCTT	1.18 ± 0.25
TGAAAATTGA	0.999 ± 0.017
TGAAACTATT	1.01 ± 0.027
TGAAACTTGA	1.042 ± 0.0055
TGAAAGGGGG	0.99 ± 0.014
TGAAATATGG	1 ± 0.017
TGAAATGCTA	1.036 ± 0.0073
TGAAATTAGT	1.01 ± 0.013
TGAAATTGGA	0.999 ± 0.015
TGAAATTTTG	1.01 ± 0.015
TGAACATTTG	1.03 ± 0.025
TGAACCGCTA	1.81 ± 0.16
TGAACGGGTG	1.04 ± 0.068
TGAACTTGAC	1.14 ± 0.052
TGAAGAACGC	1.07 ± 0.021
TGAAGACAAC	1.04 ± 0.025
TGAAGATTTT	0.9704 ± 0.0081

Sequence	switch fluorescence ratio
TGAAGCGGCG	0.942 ± 0.023
TGAAGCTGAT	1.02 ± 0.059
TGAAGCTGGG	1.07 ± 0.12
TGAAGGCTTA	0.994 ± 0.024
TGAAGGGGCA	0.951 ± 0.041
TGAAGGTCGG	0.9917 ± 0.0039
TGAATAGGGG	0.989 ± 0.0095
TGAATCAACA	1.04 ± 0.037
TGAATGACGT	0.972 ± 0.04
TGAATGAGTT	1.02 ± 0.03
TGAATGATC	1 ± 0.043
TGAATGGGCA	0.973 ± 0.024
TGAATGTTGG	0.988 ± 0.025
TGAATTATTT	1.02 ± 0.035
TGAATTGGGG	1.06 ± 0.084
TGAATTTTTA	1 ± 0.011
TGAATTTTTT	0.993 ± 0.028
TGACAGTATC	1.08 ± 0.011
TGACAGTGGG	0.959 ± 0.04
TGACATAGGA	1.001 ± 0.0029
TGACATCGGG	1.01 ± 0.033
TGACCATTGC	1.093 ± 0.0059
TGACCCTTTT	1 ± 0.077
TGACCGGAGT	1.03 ± 0.033
TGACCTGAGA	1.04 ± 0.021

Sequence	switch fluorescence ratio
TGACCTGGCT	1.04 ± 0.035
TGACGAAGGG	0.987 ± 0.023
TGACGATAGG	0.995 ± 0.013
TGACGGGGCG	1.03 ± 0.05
TGACGGGGGG	1.06 ± 0.12
TGACGGGGGT	0.989 ± 0.028
TGACGGGGTG	1.01 ± 0.044
TGACGGTGGG	0.962 ± 0.023
TGACGTAAGG	0.994 ± 0.026
TGACTGAAGG	0.9503 ± 0.0065
TGACTGTATT	1.14 ± 0.042
TGACTTTGAT	0.95 ± 0.013
TGAGAAAATT	1.017 ± 0.0034
TGAGAGACGG	0.968 ± 0.063
TGAGAGGATC	1.018 ± 0.0025
TGAGAGGCGT	1.022 ± 0.0098
TGAGATAAAG	0.967 ± 0.001
TGAGATAGCT	0.998 ± 0.033
TGAGATGCGG	1.03 ± 0.038
TGAGATGGTT	1.01 ± 0.029
TGAGATTCTG	1.05 ± 0.043
TGAGCACCGT	1 ± 0.017
TGAGCACGGG	1.03 ± 0.02
TGAGCCTGCT	0.98 ± 0.012
TGAGCGGTCA	0.99 ± 0.015

Sequence	switch fluorescence ratio
TGAGCTAGCT	1.01 ± 0.033
TGAGCTGAGG	0.957 ± 0.049
TGAGCTGGGG	0.996 ± 0.02
TGAGGATTTT	1.05 ± 0.1
TGAGGCATGT	1.05 ± 0.036
TGAGGCGGGG	0.9642 ± 0.0059
TGAGGGAGCA	1.01 ± 0.11
TGAGGGAGTG	0.996 ± 0.021
TGAGGGCATT	1 ± 0.012
TGAGGGGCGC	0.988 ± 0.028
TGAGGGGTGA	1.01 ± 0.029
TGAGGGTTTA	0.991 ± 0.017
TGAGGTATCT	1.007 ± 0.0091
TGAGGTGCGG	0.996 ± 0.024
TGAGGTTAAC	0.957 ± 0.023
TGAGGTTCGA	0.98 ± 0.03
TGAGTGAGTG	0.9933 ± 0.0015
TGAGTGGCTT	0.967 ± 0.034
TGAGTGGGGA	1 ± 0.013
TGAGTGGGGT	1.02 ± 0.031
TGAGTTAGGG	0.985 ± 0.017
TGAGTTTCCA	0.958 ± 0.011
TGAGTTTCTG	0.968 ± 0.014
TGAGTTTTAC	1.04 ± 0.03
TGATAACCGC	1.1 ± 0.039
